Square brackets hold non-standard residues; d marks the D form. Ends that are not written are not given here. Met(O) = CS(=O)CC[C@H](N)C(=O)O; pS = N[C@@H](COP(=O)(O)O)C(=O)O
Key:
[1] = molecular target: Recombinant bovine HSC70 (Stressgen) (bovine) (UniProt P19120); assay: SPR Biacore 3000, HSC70 immobilised, peptide analyte at 25 uM, 1:1 Langmuir fit
[2] = molecular target: Recombinant bovine HSC70 (Stressgen) (bovine) (UniProt P19120); assay: SPR Biacore 3000, HSC70 immobilised, peptide analyte at 1.56 uM, 1:1 Langmuir fit
[3] = molecular target: Recombinant bovine HSC70 (Stressgen) (bovine) (UniProt P19120); assay: SPR Biacore 3000, HSC70 immobilised, peptide analyte at 12.5 uM, 1:1 Langmuir fit
[4] = molecular target: Recombinant bovine HSC70 (Stressgen) (bovine) (UniProt P19120); assay: SPR Biacore 3000, HSC70 immobilised, peptide analyte at 3.12 uM, 1:1 Langmuir fit
[5] = molecular target: Recombinant bovine HSC70 (Stressgen) (bovine) (UniProt P19120); assay: SPR Biacore 3000, HSC70 immobilised, peptide analyte at 6.25 uM, 1:1 Langmuir fit
[6] = molecular target: Recombinant bovine HSC70 (Stressgen) (bovine) (UniProt P19120); assay: SPR Biacore 3000, HSC70 immobilised on CM5, peptide as analyte 1.56-25 uM, 1:1 Langmuir global fit, 25 C

Recombinant bovine HSC70 (Stressgen) (bovine), sequence (P19120 whole entry): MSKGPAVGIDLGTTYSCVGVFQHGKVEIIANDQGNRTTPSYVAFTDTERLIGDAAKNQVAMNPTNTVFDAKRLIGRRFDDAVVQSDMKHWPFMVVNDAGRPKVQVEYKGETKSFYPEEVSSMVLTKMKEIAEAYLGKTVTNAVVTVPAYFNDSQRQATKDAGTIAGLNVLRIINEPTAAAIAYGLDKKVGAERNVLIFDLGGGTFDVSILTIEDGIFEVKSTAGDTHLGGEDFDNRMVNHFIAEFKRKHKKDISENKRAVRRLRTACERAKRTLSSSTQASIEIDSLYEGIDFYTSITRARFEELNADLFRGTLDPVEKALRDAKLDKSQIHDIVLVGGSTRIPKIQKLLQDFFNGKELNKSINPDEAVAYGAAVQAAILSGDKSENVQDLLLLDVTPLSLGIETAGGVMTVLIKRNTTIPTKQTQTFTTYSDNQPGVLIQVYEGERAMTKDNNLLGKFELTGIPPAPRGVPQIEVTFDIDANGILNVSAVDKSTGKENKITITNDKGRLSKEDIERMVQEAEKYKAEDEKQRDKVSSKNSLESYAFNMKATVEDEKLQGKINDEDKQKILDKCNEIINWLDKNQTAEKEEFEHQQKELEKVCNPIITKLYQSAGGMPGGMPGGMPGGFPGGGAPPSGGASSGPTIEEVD

B1: P140 peptide (peptide consisting of SEQ ID NO: 1 in which serine at position 10 is phosphorylated) (peptide)
peptide: RIHMVYSKR[pS]GKPRGYAFIEY
[1]
  Ka: 144000 M⁻¹
  Kd: 6.94 µM
  Req: 65.2 RU
  kobs: 0.0144 s⁻¹
  koff: 0.00312 s⁻¹
[2]
  Ka: 144000 M⁻¹
  Kd: 6.94 µM
  Req: 15.3 RU
  kobs: 0.00382 s⁻¹
  koff: 0.00312 s⁻¹
[3]
  Ka: 144000 M⁻¹
  Kd: 6.94 µM
  Req: 53.6 RU
  kobs: 0.00874 s⁻¹
  koff: 0.00312 s⁻¹
[4]
  Ka: 144000 M⁻¹
  Kd: 6.94 µM
  Req: 25.8 RU
  kobs: 0.00452 s⁻¹
  koff: 0.00312 s⁻¹
[5]
  Ka: 144000 M⁻¹
  Kd: 6.94 µM
  Req: 39.5 RU
  kobs: 0.00593 s⁻¹
  koff: 0.00312 s⁻¹
[6]
  kon: 450 M⁻¹ s⁻¹

B2: P140(MO) peptide (SEQ ID NO: 4; SEQ ID NO: 1 with phosphoserine at position 10 and oxidized methionine at position 4) (peptide)
peptide: RIH[Met(O)]VYSKR[pS]GKPRGYAFIEY
[1]
  Ka: 524000 M⁻¹
  Kd: 1.91 µM
  Req: 36.3 RU
  kobs: 0.031 s⁻¹
  koff: 0.0022 s⁻¹
[2]
  Ka: 524000 M⁻¹
  Kd: 1.91 µM
  Req: 17.6 RU
  kobs: 0.004 s⁻¹
  koff: 0.0022 s⁻¹
[3]
  Ka: 524000 M⁻¹
  Kd: 1.91 µM
  Req: 33.9 RU
  kobs: 0.0166 s⁻¹
  koff: 0.0022 s⁻¹
[4]
  Ka: 524000 M⁻¹
  Kd: 1.91 µM
  Req: 24.2 RU
  kobs: 0.0058 s⁻¹
  koff: 0.0022 s⁻¹
[5]
  Ka: 524000 M⁻¹
  Kd: 1.91 µM
  Req: 29.9 RU
  kobs: 0.0094 s⁻¹
  koff: 0.0022 s⁻¹
[6]
  kon: 1150 M⁻¹ s⁻¹

From patent US20160166636A1
